The source of these data is patent US20150344570A1 (published 2015).

The target in one experiment is FcγRIIa H (human, UniProt P12318 34-217). Nature of the experiment: SPR Biacore, captured antibody, FcγR analyte; vs GpH7-A5/GpH7-B3/GpL16-k0 = 100.
The target in the next experiment is T1, FcγRIa (human, UniProt P12314 16-292).
T1 construct: extracellular domain; Soluble extracellular domain with C-terminal His tag, used as analyte; also called FcgRI; CD64; not shown: His tag at the C terminus
Briefly: SPR (Biacore), captured antibody, FcγR as analyte, relative binding. As for the experimental part: (§1) The heterodimerized antibodies He Abs in which one of the H chains was introduced with an alteration were assayed for their binding activities to each activating FcγR and inhibitory FcγR according to the method described in Example 4. […] The activating FcγRs in FIGS. 26, 27, 28, and 29 are FcγRIa, FcγRIIa (R), FcγRIIa (H), and FcγRIIIa, respectively.
(§2) Analysis of interaction between objective antibody and the FcγR was carried out using Biacore T100 (GE Healthcare). HBS-EP+ (GE Healthcare) was used as the running buffer, and the measurement temperature was set to 25° C. Chips produced by immobilizing the antigen peptide by the amine coupling method to a Series S Sencor Chip CM5 (GE Healthcare), or alternatively, chips produced by allowing preliminarily biotinylated antigen peptides to interact with and immobilize onto a Series S Sensor Chip SA (certified) (GE Healthcare) were used. Antibodies of interest were captured onto an antigen peptide-immobilized chip, and allowed to interact to each FcγR diluted with running buffer. To regenerate and repeatedly use the chip, the antibodies captured on the chip were washed off by reacting 10 mM glycine-HCl, pH 1.5.
On the technique in general: In SPR one partner is held on a chip, and binding of the other changes the refractive index at the surface.

Another experiment deals with T2, FcγRIIb (human, UniProt P31994 43-217).
T2 construct: extracellular domain; Soluble extracellular domain with C-terminal His tag, used as analyte; also called FcgRIIb; CD32B; not shown: His tag at the C terminus
T2 sequence (looked up): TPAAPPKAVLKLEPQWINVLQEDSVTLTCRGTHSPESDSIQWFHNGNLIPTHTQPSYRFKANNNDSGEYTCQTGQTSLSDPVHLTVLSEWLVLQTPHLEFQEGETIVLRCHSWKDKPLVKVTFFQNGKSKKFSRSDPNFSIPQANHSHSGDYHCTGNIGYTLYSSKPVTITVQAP
The description is as above. As for the experimental part: as §1, §2

Sequence of FcγRIIa H (P12318 34-217): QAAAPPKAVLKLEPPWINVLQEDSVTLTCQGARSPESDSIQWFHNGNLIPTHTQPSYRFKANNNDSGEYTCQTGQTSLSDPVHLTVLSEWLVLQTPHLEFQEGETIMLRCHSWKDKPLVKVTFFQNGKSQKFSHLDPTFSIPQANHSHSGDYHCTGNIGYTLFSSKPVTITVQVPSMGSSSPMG
T1 sequence (P12314 16-292): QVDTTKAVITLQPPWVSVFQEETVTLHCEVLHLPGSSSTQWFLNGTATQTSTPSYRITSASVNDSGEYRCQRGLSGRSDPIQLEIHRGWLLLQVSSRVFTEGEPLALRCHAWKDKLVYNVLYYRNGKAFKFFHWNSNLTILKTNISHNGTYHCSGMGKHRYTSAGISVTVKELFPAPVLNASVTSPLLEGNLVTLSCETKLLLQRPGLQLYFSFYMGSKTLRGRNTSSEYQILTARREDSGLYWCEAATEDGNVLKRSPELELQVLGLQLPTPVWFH

B1: GpH7-A5/GpH7-B3 variant K326_10E/GpL16-k0 (antibody, human IgG1, kappa)
heavy 1: not shown
heavy 2: not shown
light: DIVMTQSPLSLPVTPGEPASISCQASESLVHSNRNTYLHWYLQKPGQSPQLLIYKVSNRFSGVPDRFSGSGSGTDFTLKISRVEAEDVGVYYCSQNTHVPPTFGQGTKVEIERTVAAPSVFIFPPSDEQLKSGTASVVCLLNNFYPREAKVQWKVDNALQSGNSQESVTEQDSKDSTYSLSSTLTLSKADYEKHKVYACEVTHQGLSSPVTKSFNRGEC
notes: also called He Ab K326_10E
Turning to B1, the He/Con_2aH with FcγRIIa H was 102 % of control.

B2: GpH7-A5/GpH7-B3 variant S337_09D/GpL16-k0 (antibody, human IgG1, kappa)
heavy 1: not shown
heavy 2: not shown
light: B1 light
notes: also called He Ab S337_09D
Regarding B2, the He/Con_2aH in the experiment with FcγRIIa H was 107 % of control.

B3: GpH7-A5/GpH7-B3 variant S324_02A/GpL16-k0 (antibody, human IgG1, kappa)
heavy 1: not shown
heavy 2: not shown
light: B1 light
notes: also called He Ab S324_02A
As to B3, the He/Con_2aH with FcγRIIa H was 102 % of control.

B4: GpH7-A5/GpH7-B3 variant V266_07I/GpL16-k0 (antibody, human IgG1, kappa)
heavy 1: not shown
heavy 2: not shown
light: B1 light
notes: also called He Ab V266_07I
For B4, the He/Con_2aH in the experiment with FcγRIIa H was 106 % of control.

B5: GpH7-A5/GpH7-B3 variant L328_20W/GpL16-k0 (antibody, human IgG1, kappa)
heavy 1: not shown
heavy 2: not shown
light: B1 light
notes: also called He Ab L328_20W
For the molecule B5, the He/Con_2aH with FcγRIIa H is 113 % of control.

B6: GpH7-A5/GpH7-B3 variant Y300_01G/GpL16-k0 (antibody, human IgG1, kappa)
heavy 1: not shown
heavy 2: not shown
light: B1 light
notes: He Ab: mutation in one H chain only; also called He Ab
Turning to B6, the He/Con_1a with FcγRIa is 116 % of GpH7-A5/GpH7-B3/GpL16-k0. Besides, the He/Con_2b with FcγRIIb was 48.4 % of GpH7-A5/GpH7-B3/GpL16-k0.

B7: GpH7-A5/GpH7-B3 variant K326_19Q/GpL16-k0 (antibody, human IgG1, kappa)
heavy 1: not shown
heavy 2: not shown
light: B1 light
notes: also called He Ab K326_19Q
For the molecule B7, the He/Con_2aH with FcγRIIa H is 101 % of control.

B8: GpH7-A5/GpH7-B3 variant S337_10E/GpL16-k0 (antibody, human IgG1, kappa)
heavy 1: not shown
heavy 2: not shown
light: B1 light
notes: also called He Ab S337_10E
Regarding B8, the He/Con_2aH in the experiment with FcγRIIa H is 102 % of control.

B9: GpH7-A5/GpH7-B3 variant K334_08L/GpL16-k0 (antibody, human IgG1, kappa)
heavy 1: not shown
heavy 2: not shown
light: B1 light
notes: also called He Ab K334_08L
Turning to B9, in the experiment with FcγRIIa H, the He/Con_2aH is 104 % of control.

B10: GpH7-A5/GpH7-B3 variant L328_06M/GpL16-k0 (antibody, human IgG1, kappa)
heavy 1: not shown
heavy 2: not shown
light: B1 light
notes: also called He Ab L328_06M
As for B10, in the experiment with FcγRIIa H, the He/Con_2aH is 104 % of control.

B11: GpH7-A5/GpH7-B3 variant T335_07I/GpL16-k0 (antibody, human IgG1, kappa)
heavy 1: not shown
heavy 2: not shown
light: B1 light
notes: also called He Ab T335_07I
As to B11, the He/Con_2aH with FcγRIIa H is 108 % of control.

B12: GpH7-A5/GpH7-B3 variant L328_14T/GpL16-k0 (antibody, human IgG1, kappa)
heavy 1: not shown
heavy 2: not shown
light: B1 light
notes: also called He Ab L328_14T
As for B12, in the experiment with FcγRIIa H, the He/Con_2aH is 116 % of control.

B13: GpH7-A5/GpH7-B3 variant T335_01G/GpL16-k0 (antibody, human IgG1, kappa)
heavy 1: not shown
heavy 2: not shown
light: B1 light
notes: also called He Ab T335_01G
With B13, the He/Con_2aH in the experiment with FcγRIIa H was 103 % of control.

B14: GpH7-A5/GpH7-B3 variant L235_04F/GpL16-k0 (antibody, human IgG1, kappa)
heavy 1: not shown
heavy 2: not shown
light: B1 light
notes: also called He Ab L235_04F
For the molecule B14, the He/Con_2aH with FcγRIIa H is 111 % of control.

B15: GpH7-A5/GpH7-B3 variant Y296_18N/GpL16-k0 (antibody, human IgG1, kappa)
heavy 1: not shown
heavy 2: not shown
light: B1 light
notes: also called He Ab Y296_18N
For B15, in the experiment with FcγRIIa H, the He/Con_2aH is 104 % of control.

B16: GpH7-A5/GpH7-B3 variant T335_15Y/GpL16-k0 (antibody, human IgG1, kappa)
heavy 1: not shown
heavy 2: not shown
light: B1 light
notes: also called He Ab T335_15Y
As for B16, the He/Con_2aH with FcγRIIa H is 106 % of control.

B17: GpH7-A5/GpH7-B3 variant T335_19Q/GpL16-k0 (antibody, human IgG1, kappa)
heavy 1: not shown
heavy 2: not shown
light: B1 light
notes: also called He Ab T335_19Q
Take B17: the He/Con_2aH with FcγRIIa H was 103 % of control.

B18: GpH7-A5/GpH7-B3 variant T335_10E/GpL16-k0 (antibody, human IgG1, kappa)
heavy 1: not shown
heavy 2: not shown
light: B1 light
notes: also called He Ab T335_10E
As for B18, the He/Con_2aH with FcγRIIa H was 108 % of control.

B19: GpH7-A5/GpH7-B3 variant K334_04F/GpL16-k0 (antibody, human IgG1, kappa)
heavy 1: not shown
heavy 2: not shown
light: B1 light
notes: also called He Ab K334_04F
With B19, the He/Con_2aH with FcγRIIa H was 106 % of control.

B20: GpH7-A5/GpH7-B3 variant L235_20W/GpL16-k0 (antibody, human IgG1, kappa)
heavy 1: not shown
heavy 2: not shown
light: B1 light
notes: also called He Ab L235_20W
On to B20, for which, in the experiment with FcγRIIa H, the He/Con_2aH was 118 % of control.

B21: GpH7-A5/GpH7-B3 variant L235_15Y/GpL16-k0 (antibody, human IgG1, kappa)
heavy 1: not shown
heavy 2: not shown
light: B1 light
notes: also called He Ab L235_15Y
B21: in the experiment with FcγRIIa H, the He/Con_2aH is 122 % of control.
